Assay results published in patent publication US20260098095A1 (Hoffmann-La Roche, published 2026).

Legend:
Experiment in all cases: cell-based or functional assay
[1] = biological target: T1, HLA-A2/MAGE-A4 peptide MHC (pMHC) complex on cells (human)
[2] = biological target: T1, HLA-A2/MAGE-A4 peptide MHC (pMHC) …; remark: listed apart in the source
[3] = biological target: T1, HLA-A2/MAGE-A4 peptide MHC (pMHC) …; remark: listed apart in the source
pfkA = pfkA (human)
DPYSL3 = DPYSL3 (human)
gutQ = gutQ (human)
UBE2V2 = UBE2V2 (human)
DPYSL4 = DPYSL4 (human)
PIGG = PIGG (human)
CRMP1 = CRMP1 (human)
BNRF1 = BNRF1 (human)
EDC3 = EDC3 (human)
FBXO34 = FBXO34 (human)
SLC45A1 = SLC45A1 (human)
KEAP1 = KEAP1 (human)
UNC80 = UNC80 (human)
VPS13D = VPS13D (human)
MAGEB2 = MAGEB2 (human)
ARF1 = ARF1 (human)
ARF3 = ARF3 (human)
URB1 = URB1 (human)
GAPDHS = GAPDHS (human)
CCS = CCS (human)
KDM1A = KDM1A (human)
DYNC1H1 = DYNC1H1 (human)
MTOR = MTOR (human)
PKP1 = PKP1 (human)
[4] = biological target: HLA-A2 with peptide MAGB6 on T2 cells (human)
T9A = T9A (human)
V10A = V10A (human)
G1A = G1A (human)
V2A = V2A (human)
Y3A = Y3A (human)
D4A = D4A (human)
G5A = G5A (human)
R6A = R6A (human)
E7A = E7A (human)
H8A = H8A (human)
[5] = biological target: T1, HLA-A2/MAGE-A4 peptide MHC (pMHC) …; remark: listed apart in the source

B1: Molecule A (bispecific antibody, V domains shown)
VH 1: YVQLVESGGGLVKPGGSLRLSCAAPLPFTGLDMSWVRQAPGKGLEWVGSISPKGGSTYYNDNVLGRFTISRDNSKNTLYLQMNSLRAEDTAVYYCARDWGFFDLWGQGTLVTVSS
VL 1: AIQMTQSPSSLSASVGDRVTITCRASQSISNYLAWYQQKPGKAPKLLIYDANAHENDVPSRFSGSGSGTDFTLTISSLQPEDFATYYCQQYSSHPYTFGQGTKLEIK
VH 2: not shown
VL 2: QAVVTQEPSLTVSPGGTVTLTCGSSTGAVTTSNYANWVQEKPGQAFRGLIGGTNKRAPGTPARFSGSLLGGKAALTLSGAQPEDEAEYYCALWYSNLWVFGGGTKLTVL
In the case of B1, the “EC50 [pM] 24 h, T-cell mediated lysis of MAGE-A4 peptide pulsed T2 cells” value [1] is reported as 1.2 pM, the “EC50 [pM], activation of Jurkat-NFAT reporter cells (luminescence, 6 h) with MAGE-A4 peptide pulsed T2 cells” value [2] is reported as 30.3 pM and the “EC50 [pM], T-cell mediated lysis of A-375 cells, 24 h” value [3] is reported as 1210 pM. For the same binder, the “EC50 [pM], T-cell mediated lysis of C-33A cells, 24 h” value [3] was 225 pM, the “EC50 [pM], T-cell mediated lysis of IM-9 cells, 24 h” value [3] was 43.4 pM and the “EC50 [pM], T-cell mediated lysis of NCI-H1755 cells, 24 h” value [3] was 9.4 pM. For the same binder, the “EC50 [pM], T-cell mediated lysis of NCI-H2023 cells, 24 h” value [3] was 2090 pM, the “EC50 [pM], T-cell mediated lysis of UMUC-3 cells, 24 h” value [3] was 775 pM and the “% of MAGE-A4 signal, Jurkat-NFAT” value (pfkA) was 0.58%. For the same binder, the “% of MAGE-A4 signal, Jurkat-NFAT; grey (>2%)” value (shortened to “% of MAGE-A4 signal … (>2%)”) (DPYSL3) was 32.9%, the “% of MAGE-A4 signal, Jurkat-NFAT” value (gutQ) was 0.64% and the “% of MAGE-A4 signal, Jurkat-NFAT” value (UBE2V2) was 0.75%. For the same binder, the “% of MAGE-A4 signal, Jurkat-NFAT” value (DPYSL4) was 1.68%, the “% of MAGE-A4 signal, Jurkat-NFAT” value (PIGG) was 0.7% and the “% of MAGE-A4 signal, Jurkat-NFAT” value (CRMP1) was 1.74%. The “% of MAGE-A4 signal, Jurkat-NFAT” value (BNRF1) was 0.47%, the “% of MAGE-A4 signal, Jurkat-NFAT” value (EDC3) was 0.9% and the “% of MAGE-A4 signal, Jurkat-NFAT” value (FBXO34) was 0.46%. For the same binder, the “% of MAGE-A4 signal, Jurkat-NFAT” value (SLC45A1) was 0.39%, the “% of MAGE-A4 signal, Jurkat-NFAT” value (KEAP1) was 0.39% and the “% of MAGE-A4 signal, Jurkat-NFAT” value (UNC80) was 0.48%. For the same binder, the “% of MAGE-A4 signal, Jurkat-NFAT” value (VPS13D) was 0.67%, the “% of MAGE-A4 signal, Jurkat-NFAT” value (MAGEB2) was 0.83% and the “% of MAGE-A4 signal, Jurkat-NFAT” value (ARF1) was 0.67%. For the same binder, the “% of MAGE-A4 signal, Jurkat-NFAT” value (ARF3) was 0.92%, the “% of MAGE-A4 signal … (>2%)” value (URB1) was 80.5% and the “% of MAGE-A4 signal, Jurkat-NFAT” value (GAPDHS) was 0.91%. The “% of MAGE-A4 signal … (>2%)” value (CCS) was 3.06%, the “% of MAGE-A4 signal, Jurkat-NFAT” value (KDM1A) was 0.5% and the “% of MAGE-A4 signal, Jurkat-NFAT” value (DYNC1H1) was 0.4%. For the same binder, the “% of MAGE-A4 signal, Jurkat-NFAT” value (MTOR) was 0.41%, the “% of MAGE-A4 signal, Jurkat-NFAT” value (PKP1) was 0.5% and the “% of MAGE-A4 signal … (>2%)” value [4] was 22.4%. The “EC50, Jurkat-NFAT activation” value (T9A) was 0.0383 nM, the “EC50, Jurkat-NFAT activation” value (V10A) was 0.029 nM and the “EC50, Jurkat-NFAT activation” value (G1A) was 40.1 nM. For the same binder, the “EC50, Jurkat-NFAT activation” value (V2A) was 0.0184 nM, the “EC50, Jurkat-NFAT activation” value (Y3A) was 5.27 nM and the “EC50, Jurkat-NFAT activation” value (D4A) was 51.6 nM. The “EC50, Jurkat-NFAT activation” value (G5A) was 0.0056 nM, the “EC50, Jurkat-NFAT activation” value (R6A) was 40.1 nM and the “EC50, Jurkat-NFAT activation” value (E7A) was 0.1 nM. For the same binder, the “EC50, Jurkat-NFAT activation” value (H8A) was 0.044 nM and the “EC50, Jurkat-NFAT activation” value [5] was 0.0105 nM.
